Test system: Escherichia coli TOP10
Assay: shrunken log2 fold change of peptide-encoding DNA abundance (4.5 h post-induction vs induction); higher = less antimicrobial activity (less host growth inhibition)
Settings: time post-induction: 4.5 h; library: site-saturation at positions 5, 18, 19, 20
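Also: peptides expressed intracellularly from a pBAD plasmid library in pooled LB shake-flask culture, induced with 0.3% L-arabinose, DNA abundance read by NGS, three biological replicates, DESeq2 with apeglm shrinkage.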

Sequence	shrunken log2 fold change
RRIRMRPPRLPRPRPRPPDRPRP	1.26
RRIRHRPPRLPRPRPRPPSQPRP	-0.232
RRIRLRPPRLPRPRPRPPGAPRP	0.54
RRIRDRPPRLPRPRPRPKKMPRP	-0.0785
RRIRCRPPRLPRPRPRPRTGPRP	0.148
RRIRERPPRLPRPRPRPFENPRP	-0.01
RRIRDRPPRLPRPRPRPPYLPRP	-0.0541
RRIRPRPPRLPRPRPRPQYHPRP	-0.68
RRIRMRPPRLPRPRPRPDMAPRP	1.86
RRIRRRPPRLPRPRPRPPAPPRP	1.13
RRIRFRPPRLPRPRPRPHMRPRP	-0.0696
RRIRFRPPRLPRPRPRPANMPRP	0.321
RRIRVRPPRLPRPRPRPWCPPRP	0.0662
RRIRVRPPRLPRPRPRPTTMPRP	0.00526
RRIRMRPPRLPRPRPRPADFPRP	0.0087
RRIRLRPPRLPRPRPRPRTTPRP	0.182
RRIRYRPPRLPRPRPRPAWLPRP	-0.0755
RRIRMRPPRLPRPRPRPMQHPRP	0.579
RRIRGRPPRLPRPRPRPLCMPRP	0.605
RRIRIRPPRLPRPRPRPREDPRP	-0.036
RRIRWRPPRLPRPRPRPANEPRP	0.134
RRIRPRPPRLPRPRPRPVMNPRP	-0.29

Sequence	shrunken log2 fold change
RRIRKRPPRLPRPRPRPKHPPRP	0.068
RRIRFRPPRLPRPRPRPRSWPRP	0.135
RRIRERPPRLPRPRPRPWPRPRP	0.223
RRIRNRPPRLPRPRPRPNTFPRP	-0.332
RRIRFRPPRLPRPRPRPEPTPRP	0.805
RRIRPRPPRLPRPRPRPMKTPRP	-0.0446
RRIRPRPPRLPRPRPRPQLQPRP	-0.167
RRIRCRPPRLPRPRPRPRVFPRP	0.0449
RRIRNRPPRLPRPRPRPIIRPRP	-0.00165
RRIRHRPPRLPRPRPRPAYTPRP	-0.482
RRIRARPPRLPRPRPRPWYWPRP	0.0283
RRIRCRPPRLPRPRPRPYFHPRP	-0.233
RRIRLRPPRLPRPRPRPKLEPRP	-0.354
RRIRCRPPRLPRPRPRPHECPRP	-0.3
RRIRTRPPRLPRPRPRPQKEPRP	0.0092
RRIRCRPPRLPRPRPRPNEPPRP	0.0197
RRIRDRPPRLPRPRPRPKKTPRP	-0.0142
RRIRNRPPRLPRPRPRPRKKPRP	0.163
RRIRTRPPRLPRPRPRPMYIPRP	-1.2
RRIRNRPPRLPRPRPRPSHNPRP	-0.643
RRIRCRPPRLPRPRPRPMPDPRP	-0.0379
RRIRGRPPRLPRPRPRPGEWPRP	-0.0156

Sequence	shrunken log2 fold change
RRIRIRPPRLPRPRPRPCLPPRP	-0.425
RRIRRRPPRLPRPRPRPCIDPRP	-0.211
RRIRVRPPRLPRPRPRPLQGPRP	-0.292
RRIRRRPPRLPRPRPRPRWPPRP	0.598
RRIRERPPRLPRPRPRPNMCPRP	-0.369
RRIRCRPPRLPRPRPRPHGAPRP	0.0255
RRIRGRPPRLPRPRPRPMCNPRP	0.31
RRIRARPPRLPRPRPRPYMAPRP	-0.702
RRIRVRPPRLPRPRPRPMARPRP	0.0955
RRIRPRPPRLPRPRPRPQAHPRP	-0.243
RRIRSRPPRLPRPRPRPDGCPRP	0.0344
RRIRSRPPRLPRPRPRPIAMPRP	-0.127
RRIRERPPRLPRPRPRPRSFPRP	-0.331
RRIRGRPPRLPRPRPRPANKPRP	0.209
RRIRVRPPRLPRPRPRPGGTPRP	0.0237
RRIRERPPRLPRPRPRPSKQPRP	0.0844
RRIRPRPPRLPRPRPRPEMKPRP	-0.0423
RRIRCRPPRLPRPRPRPMDGPRP	0.013
RRIRARPPRLPRPRPRPGFWPRP	0.682
RRIRGRPPRLPRPRPRPFVVPRP	0.222
RRIRLRPPRLPRPRPRPWHWPRP	0.019
RRIRKRPPRLPRPRPRPVFQPRP	0.447

Sequence	shrunken log2 fold change
RRIRARPPRLPRPRPRPQETPRP	0.0762
RRIRIRPPRLPRPRPRPRLKPRP	0.0139
RRIRKRPPRLPRPRPRPMVAPRP	0.629
RRIRDRPPRLPRPRPRPYRQPRP	0.0922
RRIRERPPRLPRPRPRPKDPPRP	0.0145
RRIRYRPPRLPRPRPRPENGPRP	0.0143
RRIRHRPPRLPRPRPRPGYAPRP	-0.163
RRIRSRPPRLPRPRPRPENRPRP	-0.114
RRIRARPPRLPRPRPRPTTKPRP	0.541
RRIRCRPPRLPRPRPRPMVLPRP	-0.388
RRIRHRPPRLPRPRPRPTVHPRP	-0.755
RRIRCRPPRLPRPRPRPRAWPRP	0.24
RRIRSRPPRLPRPRPRPGARPRP	0.492
RRIRPRPPRLPRPRPRPRPWPRP	0.212
RRIRKRPPRLPRPRPRPVSGPRP	0.233
RRIRLRPPRLPRPRPRPPSQPRP	0.756
RRIRARPPRLPRPRPRPWLEPRP	-0.0344
RRIRFRPPRLPRPRPRPYIDPRP	-0.348
RRIRDRPPRLPRPRPRPEGTPRP	-0.042
RRIRQRPPRLPRPRPRPSCAPRP	-0.0664
RRIRCRPPRLPRPRPRPGCYPRP	-0.501
RRIRHRPPRLPRPRPRPDIYPRP	0.027

Sequence	shrunken log2 fold change
RRIRKRPPRLPRPRPRPHPEPRP	0.39
RRIRGRPPRLPRPRPRPQIWPRP	0.293
RRIRCRPPRLPRPRPRPLTEPRP	0.131
RRIRIRPPRLPRPRPRPCVGPRP	-0.164
RRIRLRPPRLPRPRPRPVWNPRP	0.2
RRIRDRPPRLPRPRPRPEEWPRP	0.0446
RRIRRRPPRLPRPRPRPKEFPRP	0.0689
RRIRMRPPRLPRPRPRPHPCPRP	0.046
RRIRNRPPRLPRPRPRPHSYPRP	0.132
RRIRWRPPRLPRPRPRPALIPRP	0.0212
RRIRYRPPRLPRPRPRPMNSPRP	-0.0134
RRIRNRPPRLPRPRPRPCWTPRP	-0.0133
RRIRDRPPRLPRPRPRPDGAPRP	0.657
RRIRIRPPRLPRPRPRPQHHPRP	-0.875
RRIRVRPPRLPRPRPRPYNMPRP	-0.979
RRIRQRPPRLPRPRPRPGKVPRP	-0.0155
RRIRHRPPRLPRPRPRPGNTPRP	-0.319
RRIRARPPRLPRPRPRPCWVPRP	0.237
RRIRVRPPRLPRPRPRPWNVPRP	-0.0441
RRIRLRPPRLPRPRPRPDPWPRP	0.0779
RRIRGRPPRLPRPRPRPSKIPRP	0.149
